{"source": "the DeepSol protein solubility set"}
{"assay": "soluble on expression in E. coli; label from the status in PepcDB or PDB records"}
{"sequence": "QKFIARNRAPRVQIEYDVELYGAEKKVQLPFVMGVMADLAGKPAEPQAAVADRKFLEIDVDNFDARLKAMKPRVAFNVPNVLTGEGNLSLDITFESMDDFSPAAVARKVDSLNKLLEARTQLANLLTYMDGKTGAEEMIMKAIKDPALLQALASAPKPK", "soluble on expression in E. coli": "not soluble"}
{"sequence": "MRKSKRERQRLLQETIRENPFITDEELAEKFSVSVQTIRLDRLELSIPELRERIKNVARQSFADKVRALPLEEVIGDIIDIEPDASAISIFDVKEEHVFRRTRIARGHHLFAQANSLAVAVIHDELALTAKATIRFVRQVKEGERVVAKAKVTGKTAHGRTIVEVNSYVGQELVFSGTFEMYRSNIEKKDGDSNEYRG", "soluble on expression in E. coli": "not soluble"}
{"sequence": "MGSDKIHHHHHHMVKLLLICLATIVMISCGSEQEKLTVYIPDTCTDTLQYEIYLPEEEGLNIFYDLCVTDSFCAFLDTRNDTLLKIFTATIPPALVGLGMKGEGPDDFLFPFFEKSIGREGKGKLSFIELNSWNKKIVAIHSAASPAPVAVSVVEAQQLPEMPVVRDYNETDSCVYGIDVDMQHGLFFIYDKHTARVKTVDYHRDIRSGYPEGHLSYLYESCLMVNQDAKAACMGLLNLNSLCFYDLKGNLMKEIVIGKELKSPEYDPEFLDFPNAPKYFISLCGTPNYLYALYNGFPGTSGKSKIMVFTWQGAPVAIYQTDVKLERIAVAPSGRYVLGLNITEEGGSDVLKFEL", "soluble on expression in E. coli": "not soluble"}
{"sequence": "SFWGWLNAVFNKVDHDRIRDVGPDRAASEWLLRCGAMVRYHGQQRWQKDYNHLPTGPLDKYKIQAIDATDSCIMSIGFDHMEGLQYVEKIRLCKCHYIEDGCLERLSQLENLQKSMLEMEIISCGNVTDKGIIALHHFRNLKYLFLSDLPGVKEKEKIVQAFKTSLPSLELKLDLK", "soluble on expression in E. coli": "soluble"}
{"sequence": "MGSDKIHHHHHHMGKPRIVILGGGFGGLYTARALHRTFRDTAEIEVITAENYFVFQPLLPEVGAGSVTPIHATSPYRFLLKGVGIRKAMIDSVDFAAKRVTVFQGVQRRPTEVPYDHLVVALGQTVDLSRTPGLEAHALTMKTLEDARRLRAHVIERLEHADITNLPEVKRGALTFTVIGGGFSGIETVGEMAELIDRSLKYYPNVSRDEVRIIVLEFADKVLAEMPEKLRAYAQAQLEKRGVEVCLNTGIASATGTQITTTDGDVIDTRTVVATIGNAPAPVVKRMDLPLTQGRIAVERDLSVPGRDGVWSLGDCALIPMVEDANAREDYAPPTAQFAVREAKQLAANIKRAVDGTALKPFEYTSKGSMASLGARRGIADVMGIRLTGFLAWVLWRAYYVAFLPGFPAKVWVLSHWVLDWVTPRSLVNLSSPKTDASRHIRYAKGDRIYETGNRADTFFTIIEGAVEITNAKGHDGQPTTRRIEPGGHFGERLILGATRRVATARALEDTVVLAMGRDEFLKLTRALPALRDYFEAHLAEKGLDWAPEPDERRDAAE", "soluble on expression in E. coli": "not soluble"}
{"sequence": "MKYQKLENQEANWKWIYLIRKHREGENITRYEERSLQEAKAQELLESQNYPEKIEEWIKNHLSPALPIKLDQAIRARRKRFFNGEKQHTKKKSIDLEYAVWLRLSKYSRKMKMTLSETITYMIDERESKAQFENQMAAMKTSLKNLLK", "soluble on expression in E. coli": "not soluble"}
{"sequence": "MGSDKIHHHHHHMTTTKKTGERLIKKYPNRRLYDTETSTYITLTDVKQLVLEQEDFKVIDAKSSEDLTRSILLQIILEEESGGVPMFSSSMLSQIIRFYGHAMQGMMGTYLEKNIQAFIDIQSKLADQSKNLYENNAMNPEVWSQFMNMQAPMMQGMMTSYIEQSKNMFVQMQEQMQNQAKTMFSSFPFKPATPPGSEPEKK", "soluble on expression in E. coli": "not soluble"}
{"sequence": "SADPGPDPESESESVFPREVGLFADSYSEKSQFCFCGHVLTITQNFGSRLGVAARVWDAALSLCNYFESQNVDFRGKKVIELGAGTGIVGILAALQGGDVTITDLPLALEQIQGNVQANVPAGGQAQVRALSWGIDHHVFPANYDLVLGADIVYLEPTFPLLLGTLQHLCRPHGTIYLASKMRKEHGTESFFQHLLPQHFQLELAQRDEDENVNIYRARHREPRPA", "soluble on expression in E. coli": "not soluble"}
{"sequence": "MGSDKIHHHHHHMMFGKSCQVMVKPTGSVCNLDCKYCFYLEKEKLYPDRKNHYKMSEETLELFIRQQIAAQDIDEVIFAWQGGEPTLMGIPFYRKAVEFQQRYCGGKTIVNTFQTNGILINDDWATFFREHDFLVGVSIDGDAALHDEWRVTRSGKPTHEKVENAVRCLAQHDVEFNTLTVVNRTNMHHPVQVYRYLKSIGSRYMQFIPLVERCGENGLAQPQDKHIAMTPWSVDSLQFGQFLNAVFDIWIREDIGDIGIQLFEQTLAAWCGLPPQVCVFAPTCGSAFAMEMNGDVYNCDHFVYPQFKLGNIHQKTLRQMNQGEQNRQFGSDKQRSMAQECHRCQWKFACYGGCPKHRFLPSASGATNHNYLCAGYQAFFSHTATAMSAMRTLYEKGISPAEIKSIFV", "soluble on expression in E. coli": "not soluble"}
{"sequence": "MPLEAGLLEILACPACHAPLEERDAELICTGQDCGLAYPVRDGIPVLLVDEARRPEAAALEHHHHHH", "soluble on expression in E. coli": "not soluble"}
{"sequence": "MSNRNGGGGGGDYQDVIESLRRTQLIFEEDDNNSSDSAPQANHLSRHQTSNSLVEDMVNHSNGNPPPVPPGITQQQCQIGLTPRMSASPPSAVSTISGTAVLGKTMARVQSNPPGSIPHNTTTTAQGIQSVAPHIPIGGGGATDDSSAEILSVFECPVCLEYMLPPYMQCSSGHLVCSNCRPKLQCCPTCRGPTPSVRNLGLEKIANTVRFPCKFSTSGCPLNFHHADKTEHEELCEFRPYCCPCPGASCKWQGGLSDVMEHLKKIHKSITTLQGEDIVFLATDINLPGAVDWVMMQSCFDYNFMLVLEKQEKYDPAQPTQMFYAVVQLIGSKKEADNFVYRLELSASRRRMSWEATPRSIHEGVVVAIQQSDCLAFDSNAAQLFAENGNLGINVTISRIDTPQRRHPNELENSDLEYD", "soluble on expression in E. coli": "not soluble"}
{"sequence": "LTTRDFDRTGRPLRFTELGFGSSPLGNLYRAISEEEAQALLERAWAGGIRYFDTAPLYGYGLAEERLGRFLAGHPRSDYVLSTKVGRLLRPVEPGEARDGLGKFFEVPERKERFDYGYDGVMRSLEASLDRLGLDRVDVLYAHDLDLFTHGSQEALEARLAEFMAGGYRALVELRDQGVISAFGAGVNEWQPCQWLAERGEFDLFLLAGRYTLLEQEALESFLPLAEERGIGIVIGGPYNSGVLATGPKPGSFYDYRLAPQAVLDRVAQIHTICERWGVRMFEAAFQFPLRHPAVLSVIPGPQSVGEVMENRIAADAELPPGLWEDLKVAGLLRPD", "soluble on expression in E. coli": "soluble"}
{"sequence": "MSLKYKAIAAGLLAAHLLAHPISSLAETKKFPDVSDSAWSKDAIYYLVERNVINGMPDGNFMPYGNLTRAQAAKIIATAIGAKVDPNAKPSYNDAKNSWAASFIAAMEKENIIKGREPGVFDPEGKVTRAEMAAMLVRAYNLKSKVTGPVPTKFADLENHWGKEEVNILVELKLSLGTENGWKPNDSITREQAAQLTAQTDKFSKNSDRPVEEGHHHHHH", "soluble on expression in E. coli": "soluble"}
{"sequence": "MSLAKEPLIRVLLIEDDPMVQEVNRMFVEKLSGFTIVGTTATGEEGMVKTRELQPDLILLDIFMPKQDGLSFIKQIREQYIDVDIIAVTAANDTKTIKTLLRYGVMDYLVKPFTFERLKAALTQYEEMFRKMQKEAELSQDSLDEMIKQKQAQANMDDLPKGLHAHTLQQVIERLEELDEPKSAEEIGRDVGLARVTVRRYLNYLESVGQVEMDLTYGSIGRPIQTYKLKEGHHHHHH", "soluble on expression in E. coli": "soluble"}
{"sequence": "MGSDKIHHHHHHMIITPDTLKALFTGFKKNFQDGLKMAESQYKEIATVIPSSTASNTYGWLGQWPAFREWVGDRVFQDMKAHGYAITNKHFESSVKVNRNDIEDDNVGIYAPMMTEMGRASAVHPDELVFALLKNAHATLCYDGQNFFDTDHPVYEKVDGTGQASTVSNIFAGSEAAWYLLDTTRALKPLIYQERKAKQFTAMTADTDEGVFMRNEYRYGVDGRCNVGLGFWQMAAKSQEKLDAAGFEKAYNAMVSLKGDGGRPLAIRPNVLLVPPALENAAKELVEGDRLANGAYNPNKGKAKVIVSPWLL", "soluble on expression in E. coli": "not soluble"}
{"sequence": "MLKEFKMIEAVAPDMLDVLQERFQILRNIYWMQPIGRRSLSETMGITERVLRTETDVLKQLNLIEPSKSGMTLTERGLEVYQGLELVMNQLLGMHQIEKEMTQYFGIQRCIVVAGDSDIQKKVLSDFGDVLTNTLNLLLPNGENTIAVMGGTTMAMVAENMGSLETEKRHNLFVPARGGIGEAVSVQANSISAVMANKTGGNYRALYVPEQLSRETYNSLLQEPSIQEVLTLISHANCVVHSIGRALHMAARRKMSDDEMVMLKQKNAVAESFGYFFDEEGKVVYKIPRIGLQLKNLQEIPYVVAIAGGKTKAKAIRAYMKNAPKQTWLITDEAAANEILKGVTL", "soluble on expression in E. coli": "soluble"}
{"sequence": "GMIYSKVENFINENKQNAIFTEGASHENIGRIEENLQCDLPNSYKWFLEKYGAGGLFGVLVLGYNFDHASVVNRTNEYKEHYGLTDGLVVIEDVDYFAYCLDTNKMKDGECPVVEWDRVIGYQDTVADSFIEFFYNKIQEAKDDWDEDEDWDD", "soluble on expression in E. coli": "soluble"}
{"sequence": "MGSDKIHHHHHHMRFFIAIYEENNITAAATRCYVSQPSLSAGLKQLEEELGGPLFERSKKGVKALDSAHYLYPLAVKLVEEASKLPALFMAKASRQKLRLAVMPDLSQRRLAGLLTQINQAISHLDLELVDYQSTADCRLTLDSLRHEDEVFFPLWEEDYVLCVPTEHPLAQANRIRPEELSQYDFIECPPCEAHQQTIGLLACSNLSLNLVAKADSKSLVMSLVLAGFGVSFLPDGLIEDEPRLKQIKFDGPRMFRRIGLCYPSHQAVAPTLAKLLRYLTQATA", "soluble on expression in E. coli": "not soluble"}
{"sequence": "MAHHHHHHMNILHKIFTPGSKSKKTLLHCDAELGDRQSHSSSKVSTAVQVKSKLTAASSDDDDCGPLMRSVSMTVVSDPVPSSFKTNSSFANQSRPTQGPASFKSARLANSFSNASCHLERHHQHTAALASSVSRHNQRSLFDKIHSSGSFAVGETTVSGGSFTANGGTVNLWRLPWTQQKVTMCPNCHRPRQRDRTMQVSRASYTLQETTIENGMGDDMSEANEDMSYSDSEGMGGPMSDSVTCRCGVVSEGDAPLDYDDSAEATEEHPKLFVVETQNPSAVQLPGTIAEASDSEGEGREDVRRSYKLSLVSSPTPTSLRRRAPRVQPLLSGASPQTNTASVPKRVTHWLHEQQTSEARVVLKPKAAR", "soluble on expression in E. coli": "not soluble"}
{"sequence": "MSLGSGVAEPEFPVHGDDRAAAFFDLDNTVMQGAAIFHFGRGLYKRKFFETRDLARFAWQQAWFRLAGFEDPEHMQDARDSALSIVKGHRVSELKSIGEEIYDEYMAERIWPGTRALAQAHLDAGQKVWLVTAAPVEIAQVIARRLGLTGALGTVAESIGGVYTGKLVGEPLHGPAKAEAVRALATAEALDLSRCAAYGDSHNDIPMLSLVGHPYAINPDSKLRKHARELEWRLRDYRTGRKAAKEGHHHHHH", "soluble on expression in E. coli": "soluble"}
{"sequence": "MAIAKTDVLKFTTEVQPIGKQQYMELSKDIFVFSYLCGGINFTDIANLTNENIQNGRLHYIRQKTKKPIKIGIPQEAMQIIEKYSKESKGYLFPILDSKIHKTALQKQNRIHKILGKVNKNLKLLAAQLGVEANLTTYVARHSFASVLKKSGVNIALISEALGHSDLATTQIYLDSFDNEQVDEAMRNLLEHHHHHH", "soluble on expression in E. coli": "not soluble"}
{"sequence": "MEQFPNSLSITLLGSAGGAAKAVLAILNQAIANEKDPIYEVLKNAKFHLVDIKQKDRTYYDELFSNLKGQLYLYEINLQNVVEFKQHLKEKRTSVVIDVSGADTIRVLSCCNELGICYINSALENEAVDQDDSLIGFQLTERYTRFEKEKEKFTNTKAIIGSGMNPGVVQWMVVELMKERPNERPRACYIVEHDTSFLNDTALIKPHTLYASWAVERFLDEAIWSYPMYMSHHRPLYFYEDVYASEYKVKLGEKEFYGCLMPHEEVLILGKNFNMEVGFLYRINEYTTNIIRQNLDQVEDLWNWNRKVFNPAEEEVAGEDLVGVLLVYENSETYMYNVMNSSQVFRKYKTNATYFQVGCGIYAGLSSLLLDQFEQGAYYVEELLLNTESKYGEYLNLYMKDFVIGHNNFTDGLLHDRVRWM", "soluble on expression in E. coli": "not soluble"}
{"sequence": "GMGRILREGAGWRLGWDETAHRYPGLVGTTDWAVELTAAEMADFCRLVQQLAETIAAIAPELMPEERLQIEAESALLWLEAEGFADAYELRLILASDRRVEACWPAAAVPALVAATHTLKGF", "soluble on expression in E. coli": "soluble"}
